Reference: patent publication US20260152573A1 (ARGENX, published 2026)
Residue numbers refer to the chain shown, from its start. In names and notes the source's numbering stands.

B1: TA-Fc-ABDEG-Alb23 (Fc fusion)
chain: DKTHTCPPCPAPELLGGPSVFLFPPKPKDTLYITREPEVTCVVVDVSHEDPEVKFNWYVDGVEVHNAKTKPREEQYNSTYRVVSVLTVLHQDWLNGKEYKCKVSNKALPAPIEKTISKAKGQPREPQVYTLPPSRDELTKNQVSLTCLVKGFYPSDIAVEWESNGQPENNYKTTPPVLDSDGSFFLYSKLTVDKSRWQQGNVFSCSVMHEALKFHYTQKSLSLSPGGGGGSGGGGSGGGGSGGGGSEVQLLESGGGLVQPGGSLRLSCAASGFTFRSFGMSWVRQAPGKGPEWVSSISGSGSDTLYADSVKGRFTISRDNSKNTLYLQMNSLRPEDTAVYYCTIGGSLSRSSQGTLVTVSS
notes: also called Fc-ABDEG-Alb23 (two-armed)
B2: TA-Alb23-Fc-ABDEG (Fc fusion)
chain: EVQLLESGGGLVQPGGSLRLSCAASGFTFRSFGMSWVRQAPGKGPEWVSSISGSGSDTLYADSVKGRFTISRDNSKNTLYLQMNSLRPEDTAVYYCTIGGSLSRSSQGTLVTVSSDKTHTCPPCPAPELLGGPSVFLFPPKPKDTLYITREPEVTCVVVDVSHEDPEVKFNWYVDGVEVHNAKTKPREEQYNSTYRVVSVLTVLHQDWLNGKEYKCKVSNKALPAPIEKTISKAKGQPREPQVYTLPPSRDELTKNQVSLTCLVKGFYPSDIAVEWESNGQPENNYKTTPPVLDSDGSFFLYSKLTVDKSRWQQGNVFSCSVMHEALKFHYTQKSLSLSPG
notes: Two Alb23 VHH fragments at the N-termini of both Fc domains of efgartigimod; also called two-armed N-terminal anti-HSA-Fc-ABDEG
B3: OA-Alb23-Fc-ABDEG (Fc fusion)
chain: B2 chain with T261W
Fc: DKTHTCPPCPAPELLGGPSVFLFPPKPKDTLYITREPEVTCVVVDVSHEDPEVKFNWYVDGVEVHNAKTKPREEQYNSTYRVVSVLTVLHQDWLNGKEYKCKVSNKALPAPIEKTISKAKGQPREPQVYTLPPSRDELTKNQVSLSCAVKGFYPSDIAVEWESNGQPENNYKTTPPVLDSDGSFFLVSKLTVDKSRWQQGNVFSCSVMHEALKFHYTQKSLSLSPG
B4: Alb23 G99A (VHH)
VHH: EVQLLESGGGLVQPGGSLRLSCAASGFTFRSFGMSWVRQAPGKGPEWVSSISGSGSDTLYADSVKGRFTISRDNSKNTLYLQMNSLRPEDTAVYYCTIAGSLSRSSQGTLVTVSS
notes: VHH alone
B5: Alb23 L59A (VHH)
VHH: B4 VHH with L59A, A99G
notes: VHH alone
B6: Alb23 G100A (VHH)
VHH: B4 VHH with A99G, G100A
notes: VHH alone
B7: Alb23 M34A (VHH)
VHH: B4 VHH with M34A, A99G
notes: VHH alone
B8: Alb23 G33A/S101A (VHH)
VHH: B4 VHH with G33A, A99G, S101A
notes: VHH alone
B9: Alb23 (VHH)
VHH: B4 VHH with A99G
notes: VHH alone, injected in solution; also called VHH-Alb23_Parental (#1); Alb23 parental
B10: mAb37-OA-ABDEG (antibody, human IgG1, kappa)
heavy: QVQLVQSGAEVMKPGSSVKVSCKASGYTFSWYHLEWVRQAPGHGLEWMGEIDPGTFTTNYNEKFKARVTFTADTSTSTAYMELSSLRSEDTAVYYCARFSHFSGSNHDYFDYWGQGTLVTVSSASTKGPSVFPLAPSSKSTSGGTAALGCLVKDYFPEPVTVSWNSGALTSGVHTFPAVLQSSGLYSLSSVVTVPSSSLGTQTYICNVNHKPSNTKVDKKVEPKSCDKTHTCPPCPAPELLGGPSVFLFPPKPKDTLYITREPEVTCVVVDVSHEDPEVKFNWYVDGVEVHNAKTKPREEQYNSTYRVVSVLTVLHQDWLNGKEYKCKVSNKALPAPIEKTISKAKGQPREPQVYTLPPSRDELTKNQVSLWCLVKGFYPSDIAVEWESNGQPENNYKTTPPVLDSDGSFFLYSKLTVDKSRWQQGNVFSCSVMHEALKFHYTQKSLSLSPG
light: EIVMTQSPATLSVSPGERATLSCRASQSIGTNIHWYQQKPGQAPRLLIYYASESISGIPARFSGSGSGTEFTLTISSLQSEDFAVYYCQQSWSWPTTFGGGTKVEIKRTVAAPSVFIFPPSDEQLKSGTASVVCLLNNFYPREAKVQWKVDNALQSGNSQESVTEQDSKDSTYSLSSTLTLSKADYEKHKVYACEVTHQGLSSPVTKSFNRGEC
chain: B3 Fc
notes: it is not used here as a chain; also called one-armed NT-mAb37 Fab attached to Fc-ABDEG via natural hinge region
B11: 2H11 (VHH)
VHH: ELQVVESGGGLVQAGGSLRLSCAASGRTFRSNTMGWFRQAPGKEREFVAAITWSGGTTYYADSVKGRFAISGDNAKNTVYLQMNSLKPEDTAVYYCAAEGPKWEPWNGIYHPADFGSWGQGTQVTVSS
notes: Clone from llama phage display libraries; also called 2H11 parental VHH; clone 2H11

Each binder was assayed against T1, neonatal Fc receptor (FcRn), endogenous in U937 cells (human, UniProt P55899 24-365; P61769 21-119) (assay: FcRn occupancy, FACS, U937 cells, with albumin).
T1 construct: whole, on cells; Free FcRn was stained intracellularly after fixation and permeabilisation
T1 sequence (P55899 24-365 limits assumed, chain 1 of 2): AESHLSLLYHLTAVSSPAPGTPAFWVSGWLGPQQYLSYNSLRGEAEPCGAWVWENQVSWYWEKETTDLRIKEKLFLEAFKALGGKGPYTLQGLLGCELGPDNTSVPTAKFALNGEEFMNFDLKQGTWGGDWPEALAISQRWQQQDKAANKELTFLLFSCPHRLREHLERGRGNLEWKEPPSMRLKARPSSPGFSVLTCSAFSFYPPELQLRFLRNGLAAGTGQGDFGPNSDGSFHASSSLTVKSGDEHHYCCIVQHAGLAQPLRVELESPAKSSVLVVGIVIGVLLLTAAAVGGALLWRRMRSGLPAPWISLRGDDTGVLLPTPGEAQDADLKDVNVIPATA
T1 sequence (P61769 21-119 limits assumed, chain 2 of 2): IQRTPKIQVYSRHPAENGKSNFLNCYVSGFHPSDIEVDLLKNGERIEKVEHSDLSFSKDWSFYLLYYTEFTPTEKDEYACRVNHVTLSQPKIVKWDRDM
Method: (§1) Next, FcRn occupancy was tested using a cell-based FcRn occupancy assay in the presence or absence of albumin. […] Cells (HEK FcRn mut or U937) were plated in a 96-well microplate. Cells were incubated with test article for two hours, shaking at 37° C., pH 7.4 in FACS buffer. Plates were then transferred immediately on ice and cells were collected by centrifugation at 4° C. Cells stained for viability in FACS buffer at pH 6 and then fixed/permeabilized in permeabilization buffer at pH 6. […] Cells were analyzed by FACS, ensuring that they are kept on ice until immediately prior to analysis.
With B1 the “% max occupancy” value was 69.7% and the IC50 was 14.5 nM. With B2 the “% max occupancy” value was 39.1% and the IC50 was 389 nM. For B3, the “% max occupancy” value was 51.1% and the IC50 was 25 nM.

These binders were tested against T2, human serum albumin (human, UniProt P02768 25-609) (assay: SPR Biacore 8K+ SCK, albumin on chip, pH 7.4).
T2 construct: Immobilised on SPR chips; also added in solution in the FcRn occupancy assays; also called HSA; humanSA
With B4 the Kd was 100 nM, the koff was 0.0954 s⁻¹ and the kon was 955000 M⁻¹ s⁻¹. With B5 the Kd was 51 nM, the koff was 0.0451 s⁻¹ and the kon was 885000 M⁻¹ s⁻¹. With B6 the Kd was 30.6 nM, the koff was 0.0232 s⁻¹ and the kon was 758000 M⁻¹ s⁻¹. B7 was tested, and the Kd was 175 nM, the koff was 0.226 s⁻¹ and the kon was 1.29e+06 M⁻¹ s⁻¹. B8 gave a Kd of 116 nM, a koff of 0.133 s⁻¹ and a kon of 1.15e+06 M⁻¹ s⁻¹.

What follows are binders tested against T2, human serum albumin (assay: SPR Biacore 8K+ SCK, albumin on chip, pH 5.5).
With B9 the Kd was 1.42 nM. Work on B4 yielded a Kd of 42.5 nM, a koff of 0.0473 s⁻¹ and a kon of 1.11e+06 M⁻¹ s⁻¹. B5 gave a Kd of 28.6 nM, a koff of 0.0268 s⁻¹ and a kon of 935000 M⁻¹ s⁻¹. With B6 the Kd was 19.3 nM, the koff was 0.0184 s⁻¹ and the kon was 950000 M⁻¹ s⁻¹. Binder B7 has a Kd of 73.8 nM, a koff of 0.0837 s⁻¹ and a kon of 1.13e+06 M⁻¹ s⁻¹. Binder B8 has a Kd of 55 nM, a koff of 0.0672 s⁻¹ and a kon of 1.22e+06 M⁻¹ s⁻¹.

The binders below were run against T3, cynomolgus monkey serum albumin (cynomolgus monkey, UniProt A2V9Z4 25-608) (assay: SPR Biacore 8K+ SCK, albumin on chip, pH 7.4).
T3 construct: Immobilised on SPR chips; also called cynoSA; cynomolgus albumin
With B9 the Kd was 2.68 nM. In the case of B4, the Kd is reported as 152 nM, the koff is reported as 0.0809 s⁻¹ and the kon is reported as 533000 M⁻¹ s⁻¹. B5 gave a Kd of 55.6 nM, a koff of 0.0444 s⁻¹ and a kon of 797000 M⁻¹ s⁻¹. Binder B6 has a Kd of 37.9 nM, a koff of 0.0266 s⁻¹ and a kon of 701000 M⁻¹ s⁻¹. For B7, the Kd was 182 nM, the koff was 0.356 s⁻¹ and the kon was 1.95e+06 M⁻¹ s⁻¹. B8 showed a Kd of 146 nM, a koff of 0.129 s⁻¹ and a kon of 881000 M⁻¹ s⁻¹.

What follows are binders tested against T1, neonatal Fc receptor (FcRn), endogenous … (assay: FcRn occupancy, FACS, U937 cells, without albumin).
Method: as §1
B2 was tested, and the IC50 was 7.5 nM. B3 was tested, and the IC50 was 8.5 nM.

These binders were tested against T1, neonatal Fc receptor (FcRn), endogenous … (assay: cell-based FcRn occupancy assay on U937 cells, flow cytometry; free FcRn stained with anti-FcRn-Fab AF647).
With B10 the “IC50 (read off the curve)” value was ~1 nM.

The binders below were run against T2, human serum albumin (assay: SPR Biacore 8K+ SCK, albumin on chip, pH 7.4; pH 7.4).
B9 was tested, and the Kd was 2.37 nM.

Molecular target: T3, cynomolgus monkey serum albumin
Assay: SPR Biacore 8K+ SCK, albumin on chip, pH 7.4
Remark: another data set of the same source
Work on B9 yielded a Kd of 2.68 nM. Binder B4 has a Kd of 152 nM. B5 showed a Kd of 55.6 nM. B6 was tested, and the Kd was 37.9 nM. In the case of B7, the Kd is reported as 182 nM. In the case of B8, the Kd is reported as 146 nM.

Molecular target: T2, human serum albumin
Assay: SPR Biacore 8K+ SCK, albumin on chip, pH 7.4
Remark: another data set of the same source
B9 showed a Kd of 2.37 nM. In the case of B4, the Kd is reported as 100 nM. B5 showed a Kd of 51 nM. For B6, the Kd was 30.6 nM. Work on B7 yielded a Kd of 175 nM. B8 gave a Kd of 116 nM.

These binders were tested against T4, mouse serum albumin (mouse, UniProt P07724 25-608) (assay: SPR Biacore 8K+ SCK, albumin on chip, pH 7.4).
T4 construct: Immobilised on SPR chips; also called mouseSA; MSA
In the case of B4, the Kd is reported as 73.1 nM. Binder B5 has a Kd of 354 nM. In the case of B6, the Kd is reported as 87.8 nM. With B7 the Kd was 149 nM. Binder B8 has a Kd of 118 nM.

The binders below were run against T3, cynomolgus monkey serum albumin (assay: SPR Biacore 8K+ SCK, albumin on chip, ratio of KD).
For B4, the “KD pH 5.5/pH 7.4” value was 0.31. With B5 the “KD pH 5.5/pH 7.4” value was 0.46. B6 was tested, and the “KD pH 5.5/pH 7.4” value was 0.57. For B7, the “KD pH 5.5/pH 7.4” value was 0.42. With B8 the “KD pH 5.5/pH 7.4” value was 0.42.

These binders were tested against T5, isolated domain II of serum albumin (UniProt P02768 213-409, limits assumed) (assay: screening by ELISA/Biacore).
T5 construct: domain: DII; also called isolated DII
B11: no binding.

What follows are binders tested against T3, cynomolgus monkey serum albumin (assay: screening by ELISA/Biacore).
B11: no binding.

These binders were tested against T4, mouse serum albumin (assay: screening by ELISA/Biacore).
B11: no binding.

Molecular target: T2, human serum albumin
Assay: SPR Biacore 8K+ SCK, albumin on chip, pH 7.4
Remark: another data set of the same source
With B4 the “fold decrease in affinity compared to the parental Alb23 VHH fragment” value (from here on “fold decrease in affinity”) was ≥ 10 fold. In the case of B5, the “fold decrease in affinity” value is reported as ≥ 10 fold. For B6, the “fold decrease in affinity” value was ≥ 10 fold. B7 was tested, and the “fold decrease in affinity” value was ≥ 10 fold. With B8 the “fold decrease in affinity” value was ≥ 10 fold.

These binders were tested against T2, human serum albumin (assay: SPR (Biacore), albumin binding at pH 5.5 and pH 7.4; concentration not given; the legend says only albumin, the example names albumin coated and construct flown over).
B1: binds.

Each binder was assayed against T3, cynomolgus monkey serum albumin (assay: SPR Biacore 8K+ SCK, albumin on chip, pH 5.5).
For B9, the Kd was 1.32 nM. Work on B4 yielded a Kd of 47.2 nM, a koff of 0.0495 s⁻¹ and a kon of 1.05e+06 M⁻¹ s⁻¹. Work on B5 yielded a Kd of 25.6 nM, a koff of 0.0241 s⁻¹ and a kon of 940000 M⁻¹ s⁻¹. B6 was tested, and the Kd was 21.5 nM, the koff was 0.0195 s⁻¹ and the kon was 905000 M⁻¹ s⁻¹. Binder B7 has a Kd of 76 nM, a koff of 0.0831 s⁻¹ and a kon of 1.09e+06 M⁻¹ s⁻¹. Work on B8 yielded a Kd of 61.6 nM, a koff of 0.0711 s⁻¹ and a kon of 1.15e+06 M⁻¹ s⁻¹.

What follows are binders tested against T2, human serum albumin (assay: SPR Biacore 8K+ SCK, albumin on chip, ratio of KD).
For B4, the “KD pH 5.5/pH 7.4” value was 0.43. With B5 the “KD pH 5.5/pH 7.4” value was 0.56. With B6 the “KD pH 5.5/pH 7.4” value was 0.63. For B7, the “KD pH 5.5/pH 7.4” value was 0.42. For B8, the “KD pH 5.5/pH 7.4” value was 0.47.
